According to patent US20230391828A1, “REGULATORS OF CELL DIVISION” (TECHNISCHE UNIVERSITÄT DRESDEN, priority 2020, published 2023):
Entries after “also recorded” stand apart in the source; their conditions may differ. Bridge positions count the residues as written; N and C are the ends. Square brackets hold non-standard residues; d marks the D form. R8 = C=CCCCCCC[C@@](C)(N)C(=O)O; S5 = C=CCCC[C@](C)(N)C(=O)O; Pra = C#CC[C@H](N)C(=O)O

What was measured:
APC/C (APC11) = target: T1, APC/C (APC11) (Homo sapiens, UniProt Q9NYG5); experiment: Pull-down binding assay in HeLa K cell extract, APC/C; conditions: Pra peptide clicked to azide agarose or magnetic beads, Western blot
T1 construct: endogenous in cells; host or cells: HeLa K cell extract
Procedure: (§1) For the protein transfer, the 0.45 μm Immobilon-FL PVDF membrane (Merck Millipore) was used. The membrane was activated in ethanol and then transferred to the Blotting buffer (50 mM SDS-MOPS, 50 mM Tris base, 0.1% SDS, 1 mM EDTA, 20% EtOH). The proteins were transferred using a wet transfer for 1.5 h at 400 mA. Subsequently, the membrane was incubated with the blocking solution, 10% milk in PBS-T (0.02% Tween-20 in PBS), for 1 h at room temperature. To detect proteins of the interest, the membrane was incubated with primary antibodies overnight at 4° C. Followed by washing the membrane 3 times 10 min with PBS-T and incubation with IRDye fluorescently labelled secondary antibodies for 1 h. Prior detection, the membrane was twice washed with PBS-T for 10 min and once with PBS for 10 min. The detection was done using the quantitative near-infrared scanning system Odyssey (LI-COR Biosciences).
HeLa K cell pellet was re-suspended in the extraction buffer (30 mM HEPES pH 7.5, 175 mM NaCl, 2.5 mM MgCl2, 0.25% NP40, 10% glycerol, 1 mM DTT) supplemented with 10 μM MG132 (VWR), 1 mM PMSF (Sigma-Aldrich), complete protease inhibitor cocktail (Roche) and PhosSTOP phosphatase inhibitors (Roche) and incubated for 20 min on ice, followed by centrifugation of cell debris for 15 min at 4° C. 16 100 g. In mean time, inhibitor molecules containing Propargyl (Pra) chemical group were covalently attached to the azide agarose or azide magnetic resin (Jena Bioscience) by Cu(I)-catalysed azide-alkyne cycloaddition reaction. Specifically, the inhibitor molecules were mixed with azide agarose resin in ratio 0.125 μmol inhibitor/25 μl agarose resin and azide magnetic resin in ratio 0.018 μmol inhibitor/20 μl magnetic resin. The reaction was catalysed by 1 mM CuSO4, 0.1 mM TBTA (Sigma-Aldrich) and 1 mM Sodium ascorbate and was performed on the rotating wheel for 30 min at room temperature in the volume of 1 ml. Subsequently, the resin was washed 5 times with the extraction buffer. The inhibitor-agarose resin was added to 1 mg of HeLa K cell extract and the inhibitor-magnetic resin was added to 0.5 mg of HeLa K cell extract followed by incubation at 4° C. for 2 h. Followed by washing the resin 5 times with the extraction buffer. Pull-down proteins were eluted by boiling for 15 min with 1×LDS sample buffer supplemented with 100 mM DTT (agarose resin) or by incubation with 1×LDS sample buffer for 10 min at room temperature followed by taking supernatant that was supplemented with 100 mM DTT and boiling it for 10 min. Samples were subjected to SDS PAGE and Western blot analysis.
HeLa K cell pellet was re-suspended in the extraction buffer (30 mM HEPES pH 7.5, 175 mM NaCl, 2.5 mM MgCl2, 0.25% NP40, 10% glycerol, 1 mM DTT supplied with complete protease inhibitor cocktail (Roche), PhosSTOP phosphatase inhibitors (Roche), 1 mM PMSF, 10 μM MG132) and incubated for 20 min on ice, followed by centrifugation to clear the lysate for 15 min at 4° C. 16,100 g. In the meantime, inhibitor molecules containing the propargyl-Gly-OH (Pra) chemical group were covalently attached to the azide agarose resin (Jena Bioscience) by Cu(I)-catalysed azide-alkyne cycloaddition reaction. Specifically, the inhibitor molecules were mixed with azide agarose resin in ratio 0.125 μmol inhibitor/20 μl agarose resin. The reaction was catalysed by 0.1 mM CuSO4, 0.5 mM THPTA (Sigma-Aldrich) and 5 mM Sodium ascorbate and was performed on the rotating wheel for 30 min at room temperature in the volume of 1 ml. […]

Cullin 1 = target: T2, Cullin 1 (Homo sapiens, UniProt Q13616); experiment: Pull-down binding assay in HeLa K cell extract, Cullin 1; conditions: azide beads, Western blot
T2 construct: endogenous in cells; host or cells: HeLa K cell extract
T2 sequence (Q13616 whole entry): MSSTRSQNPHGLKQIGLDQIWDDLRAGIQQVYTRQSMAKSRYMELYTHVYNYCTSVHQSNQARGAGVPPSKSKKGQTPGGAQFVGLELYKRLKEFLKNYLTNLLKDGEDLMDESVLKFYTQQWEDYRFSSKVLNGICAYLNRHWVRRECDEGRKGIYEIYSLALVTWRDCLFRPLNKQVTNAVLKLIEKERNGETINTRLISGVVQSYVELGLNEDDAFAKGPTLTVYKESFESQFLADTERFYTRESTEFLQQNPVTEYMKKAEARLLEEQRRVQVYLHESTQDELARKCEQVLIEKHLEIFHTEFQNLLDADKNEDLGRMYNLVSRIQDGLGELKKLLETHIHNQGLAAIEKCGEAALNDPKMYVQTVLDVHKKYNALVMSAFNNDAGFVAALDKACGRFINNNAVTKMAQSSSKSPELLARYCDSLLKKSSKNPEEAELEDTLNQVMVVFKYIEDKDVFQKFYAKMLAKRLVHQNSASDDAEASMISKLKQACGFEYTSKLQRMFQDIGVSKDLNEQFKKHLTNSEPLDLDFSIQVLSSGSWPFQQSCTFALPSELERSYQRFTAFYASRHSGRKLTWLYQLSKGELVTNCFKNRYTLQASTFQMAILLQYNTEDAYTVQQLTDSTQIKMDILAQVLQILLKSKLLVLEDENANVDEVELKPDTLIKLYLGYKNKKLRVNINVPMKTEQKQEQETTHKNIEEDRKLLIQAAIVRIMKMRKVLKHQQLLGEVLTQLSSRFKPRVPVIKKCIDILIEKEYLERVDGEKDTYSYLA
Procedure: as §1
HeLa K cell pellet was re-suspended in the extraction buffer (30 mM HEPES pH 7.5, 175 mM NaCl, 2.5 mM MgCl2, 0.25% NP40, 10% glycerol, 1 mM DTT) supplemented with 10 μM MG132 (VWR), 1 mM PMSF (Sigma-Aldrich), complete protease inhibitor cocktail (Roche) and PhosSTOP phosphatase inhibitors (Roche) and incubated for 20 min on ice, followed by centrifugation of cell debris for 15 min at 4° C. 16 100 g. […]

APC/C [1] = target: T3, APC/C (Homo sapiens, UniProt Q9NYG5); experiment: In vitro APC/C ubiquitination assay driven by the E2 enzyme UBE2C, fluorophore-labelled securin substrate; type: biochemical; conditions: 100 μM, UBE2C, reaction time 45 min
T3 construct: made in house; host or cells: SF9 insect cells (baculovirus)
Procedure: Proteins were separated by SDS-PAGE electrophoresis using precast Bolt 4-12% Bis-Tris Plus protein gels (Thermo Fisher Scientific) and Criterion XT Bis-Tris Midi Protein Gels (Bio-Rad). In different experiments, various conditions were used: in vitro APC/C ubiquitination assays—165 V, 40 min, SDS-MES running buffer (50 mM MES, 50 mM Tris base, 0.1% SDS, 1 mM EDTA, pH 7.3; Thermo Fisher Scientific); in vitro APC/C ubiquitination assays determining KM—165V, 1 h, SDS-MOPS running buffer (50 mM MOPS, 50 mM Tris base, 0.1% SDS, 1 mM EDTA, pH 7.7; Thermo Fisher Scientific); pull-down binding assay—165 V, 35 min, SDS-MES running buffer.
APC/C-dependent ubiquitination reactions were performed at 30° C. in 30 mM HEPES pH 7.4, 175 mM NaCl, 8 mM MgCl2, 0.05% Tween-20, 1 mM DTT and 5% glycerol and contained 20 nM recombinant APC/C (note, for testing the first generation of inhibitors, APC/C and Cdc20 immunoprecipitated from mitotic HeLa K cells was used), 340 nM Cdc20, 46 nM GST-UBA1, 340 nM UBE2C (alternatively 400 nM UBE2D1, 280 nM UBE2S), 21 μM His6-ubiquitin or if it is indicated 21 μM methylated-ubiquitin (BostonBiochem), 2.6 mM ATP, 10 mM phosphocreatine and 11 μM creatine kinase. As substrates, 35 nM fluorophore-labeled ubiquitin-cyclin B and 50 nM fluorophore-labeled securin were standardly used (fluorophore IRDye 800CW (LI-COR) was used for labelling). In case of KM and kcat determination, 50, 100, 250, 500, 750, 1000, 1250, 2500 and 5000 nM fluorophore-labelled securin was used. The reaction was done in the volume of 15 μl, it was quenched after the indicated time with LDS sample buffer (Thermo Fisher Scientific) supplemented with 100 mM DTT and subjected to SDS-PAGE. Detection of fluorescently labelled substrates was done by quantitative near-infrared scanning system Odyssey.

APC/C [2] = experiment: Ubiquitinated securin (Mean ± SD); conditions: 100 µM
Description: Table printed on a drawing sheet, Figure 6
Head of the field: Ubiquitinated securin (Mean ± SD)

Q: How did the “binding to the APC/C (pull-down)” value (APC/C (APC11)) turn out when “Ac-cyclo(5,9)-RWPPraXKWDXQVRRW-NH2 (Ac-RWP[Pra][S5]KWD[S5]QVRRW-NH2; staple 5-9; SMILES C#CC[C@H](NC(=O)[C@@H]1CCCN1C(=O)[C@H](Cc1c[nH]c2ccccc12)NC(=O)[C@H](CCCNC(=N)N)NC(C)=O)C(=O)N[C@@]1(C)CCCC=CCCC[C@@](C)(C(=O)N[C@@H](CCC(N)=O)C(=O)N[C@H](C(=O)N[C@@H](CCCNC(=N)N)C(=O)N[C@@H](CCCNC(=N)N)C(=O)N[C@@H](Cc2c[nH]c3ccccc23)C(N)=O)C(C)C)NC(=O)[C@H](CC(=O)O)NC(=O)[C@H](Cc2c[nH]c3ccccc23)NC(=O)[C@H](CCCCN)NC1=O) [G3-1Pra]” was run?
A: Its value is “binds to the APC/C (APC2 and APC11)”.

Q: And the “binding to Cullin 1 (pull-down)” value (Cullin 1)?
A: Its value is “almost does not bind”.

Q: Which “binding to the APC/C (pull-down)” value (APC/C (APC11)) does the source give for “Ac-cyclo(5,9)-RWPQXKWDXQVRRW-NH2 (Ac-RWPQ[S5]KWD[S5]QVRRW-NH2; staple 5-9; SMILES CC(=O)N[C@@H](CCCNC(=N)N)C(=O)N[C@@H](Cc1c[nH]c2ccccc12)C(=O)N1CCC[C@H]1C(=O)N[C@@H](CCC(N)=O)C(=O)N[C@@]1(C)CCCC=CCCC[C@@](C)(C(=O)N[C@@H](CCC(N)=O)C(=O)N[C@H](C(=O)N[C@@H](CCCNC(=N)N)C(=O)N[C@@H](CCCNC(=N)N)C(=O)N[C@@H](Cc2c[nH]c3ccccc23)C(N)=O)C(C)C)NC(=O)[C@H](CC(=O)O)NC(=O)[C@H](Cc2c[nH]c3ccccc23)NC(=O)[C@H](CCCCN)NC1=O) [G3-1] [listing 1 of 2 here]” here?
A: Its value is “binds specifically to the APC/C”.

Q: And the “inhibition of APC/C activity in vitro compared with TAME” value (APC/C [1]; 3 independent assays)?
A: Its value is “inhibit APC/C in vitro more efficiently than TAME”.

Q: With “Ac-cyclo(5,9)-RWPQXIKDXQVRWW-NH2 (Ac-RWPQ[S5]IKD[S5]QVRWW-NH2; staple 5-9; SMILES CC[C@H](C)[C@@H]1NC(=O)[C@@](C)(NC(=O)[C@H](CCC(N)=O)NC(=O)[C@@H]2CCCN2C(=O)[C@H](Cc2c[nH]c3ccccc23)NC(=O)[C@H](CCCNC(=N)N)NC(C)=O)CCCC=CCCC[C@@](C)(C(=O)N[C@@H](CCC(N)=O)C(=O)N[C@H](C(=O)N[C@@H](CCCNC(=N)N)C(=O)N[C@@H](Cc2c[nH]c3ccccc23)C(=O)N[C@@H](Cc2c[nH]c3ccccc23)C(N)=O)C(C)C)NC(=O)[C@H](CC(=O)O)NC(=O)[C@H](CCCCN)NC1=O) [G3-3]” as the substance, how does the “Ubiquitinated securin (Mean ± SD)” value (APC/C [2]) read?
A: The value was 5.1 ± 6%.

Q: With “Ac-cyclo(5,9)-RWPQXKWDXQVRRW-NH2 (Ac-RWPQ[S5]KWD[S5]QVRRW-NH2; staple 5-9; SMILES CC(=O)N[C@@H](CCCNC(=N)N)C(=O)N[C@@H](Cc1c[nH]c2ccccc12)C(=O)N1CCC[C@H]1C(=O)N[C@@H](CCC(N)=O)C(=O)N[C@@]1(C)CCCC=CCCC[C@@](C)(C(=O)N[C@@H](CCC(N)=O)C(=O)N[C@H](C(=O)N[C@@H](CCCNC(=N)N)C(=O)N[C@@H](CCCNC(=N)N)C(=O)N[C@@H](Cc2c[nH]c3ccccc23)C(N)=O)C(C)C)NC(=O)[C@H](CC(=O)O)NC(=O)[C@H](Cc2c[nH]c3ccccc23)NC(=O)[C@H](CCCCN)NC1=O) [G3-1] [listing 2 of 2 here]” as the substance, how does the “Ubiquitinated securin (Mean ± SD)” value (APC/C [2]) read?
A: Its value is 15.7 ± 8%.

Q: With “Ac-cyclo(4,11)-EWWZKLELQRXRRA-NH2 (Ac-EWW[R8]KLELQR[S5]RRA-NH2; staple 4-11; SMILES CC(=O)N[C@@H](CCC(=O)O)C(=O)N[C@@H](Cc1c[nH]c2ccccc12)C(=O)N[C@@H](Cc1c[nH]c2ccccc12)C(=O)N[C@]1(C)CCCCCCC=CCCC[C@@](C)(C(=O)N[C@@H](CCCNC(=N)N)C(=O)N[C@@H](CCCNC(=N)N)C(=O)N[C@@H](C)C(N)=O)NC(=O)[C@H](CCCNC(=N)N)NC(=O)[C@H](CCC(N)=O)NC(=O)[C@H](CC(C)C)NC(=O)[C@H](CCC(=O)O)NC(=O)[C@H](CC(C)C)NC(=O)[C@H](CCCCN)NC1=O) [G3-5]” as the substance, how does the “Ubiquitinated securin (Mean ± SD)” value (APC/C [2]) read?
A: Its value is 6.1 ± 7%.

Q: For “Ac-cyclo(4,11)-EWWZKLEIQRXRRA-NH2 (Ac-EWW[R8]KLEIQR[S5]RRA-NH2; staple 4-11; SMILES CC[C@H](C)[C@@H]1NC(=O)[C@H](CCC(=O)O)NC(=O)[C@H](CC(C)C)NC(=O)[C@H](CCCCN)NC(=O)[C@](C)(NC(=O)[C@H](Cc2c[nH]c3ccccc23)NC(=O)[C@H](Cc2c[nH]c3ccccc23)NC(=O)[C@H](CCC(=O)O)NC(C)=O)CCCCCCC=CCCC[C@@](C)(C(=O)N[C@@H](CCCNC(=N)N)C(=O)N[C@@H](CCCNC(=N)N)C(=O)N[C@@H](C)C(N)=O)NC(=O)[C@H](CCCNC(=N)N)NC(=O)[C@H](CCC(N)=O)NC1=O) [G3-4]”, which “Ubiquitinated securin (Mean ± SD)” value (APC/C [2]) is on record?
A: The value was 4.5 ± 7%.

Q: For “Ac-cyclo(2,11)-RCHWGPRTFWCR—NH2 (Ac-RCHWGPRTFWCR-NH2; disulfide 2-11; SMILES CC(=O)N[C@@H](CCCNC(=N)N)C(=O)N[C@H]1CSSC[C@@H](C(=O)N[C@@H](CCCNC(=N)N)C(N)=O)NC(=O)[C@H](Cc2c[nH]c3ccccc23)NC(=O)[C@H](Cc2ccccc2)NC(=O)[C@H]([C@@H](C)O)NC(=O)[C@H](CCCNC(=N)N)NC(=O)[C@@H]2CCCN2C(=O)CNC(=O)[C@H](Cc2c[nH]c3ccccc23)NC(=O)[C@H](Cc2c[nH]cn2)NC1=O) [G1-3]”, which “inhibition of APC/C activity in vitro (ubiquitinated securin)” value (APC/C [1]) is on record?
A: Its value is “the most potent molecule from items (b)-(e); also recorded: the most potent molecule from item (b)”.
